What was measured:
Conditions in all cases: one partner purified
CXCR4 V112A = target: T1, CXCR4 V112A (human, UniProt P61073-1 1-352, V112A); experiment: flow cytometry on cells; 12G5 antibody competition on 293T cells transiently transfected with CXCR4 wt or mutants (IRES-eGFP vector), eGFP-positive cells gated; serially diluted peptide with a constant concentration of CXCR4 antibody clone 12G5, 2 h; bound antibody read; IC50 by nonlinear regression
T1 construct: human CXCR4, isoform 1 or b; source: 293T cells, transiently transfected (pcDNA3.1 CXCR4-IRES-eGFP), on cells
T1 sequence (P61073 whole entry V112A, canonical isoform): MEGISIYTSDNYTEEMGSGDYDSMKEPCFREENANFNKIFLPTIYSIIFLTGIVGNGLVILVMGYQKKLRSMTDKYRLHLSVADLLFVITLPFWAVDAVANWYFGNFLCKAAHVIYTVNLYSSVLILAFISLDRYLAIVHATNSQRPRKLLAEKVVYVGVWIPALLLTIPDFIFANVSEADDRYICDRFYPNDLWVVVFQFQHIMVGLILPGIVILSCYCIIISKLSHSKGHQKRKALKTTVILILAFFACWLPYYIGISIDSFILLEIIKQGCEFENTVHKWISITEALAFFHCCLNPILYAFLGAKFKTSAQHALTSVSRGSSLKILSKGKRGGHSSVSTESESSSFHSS

[1] = target: T2, CXCR4 wt (transfected 293T cells) (human, UniProt P61073-1 1-352); experiment: as above
T2 construct: human CXCR4, isoform 1 or b; eGFP is expressed separately from an IRES, not fused; also called wild-type CXCR4; source: 293T cells, transiently transfected (pcDNA3.1 CXCR4-IRES-eGFP), on cells
T2 sequence (P61073 whole entry, the tested form may be a part, canonical isoform): as the sequence (P61073 whole entry V112A, canonical isoform) above, with A112V counted along it

CXCR4 D97N = target: T3, CXCR4 D97N (human, UniProt P61073-1 1-352, D97N); experiment: as above
T3 construct: human CXCR4, isoform 1 or b; source: 293T cells, transiently transfected (pcDNA3.1 CXCR4-IRES-eGFP), on cells
T3 sequence (P61073 whole entry D97N, canonical isoform): as the sequence (P61073 whole entry V112A, canonical isoform) above, with D97N, A112V counted along it

CXCR4 D97Q = target: T4, CXCR4 D97Q (human, UniProt P61073-1 1-352, D97Q); experiment: as above
T4 construct: human CXCR4, isoform 1 or b; source: 293T cells, transiently transfected (pcDNA3.1 CXCR4-IRES-eGFP), on cells
T4 sequence (P61073 whole entry D97Q, canonical isoform): as the sequence (P61073 whole entry V112A, canonical isoform) above, with D97Q, A112V counted along it

[2] = target: T5, CXCR4 D97E + V112A + L41A (human, UniProt P61073-1 1-352, L41A | D97E | V112A); experiment: as above
T5 construct: human CXCR4, isoform 1 or b; also called L41A plus D97E plus V112A; source: 293T cells, transiently transfected (pcDNA3.1 CXCR4-IRES-eGFP), on cells
T5 sequence (P61073 whole entry L41A/D97E/V112A, canonical isoform): as the sequence (P61073 whole entry V112A, canonical isoform) above, with L41A, D97E counted along it

CXCR4 D97E + V112A = target: T6, CXCR4 D97E + V112A (human, UniProt P61073-1 1-352, D97E | V112A); experiment: as above
T6 construct: human CXCR4, isoform 1 or b; also called D97E plus V112A; source: 293T cells, transiently transfected (pcDNA3.1 CXCR4-IRES-eGFP), on cells
T6 sequence (P61073 whole entry D97E/V112A, canonical isoform): as the sequence (P61073 whole entry V112A, canonical isoform) above, with D97E counted along it

CXCR4 L41A = target: T7, CXCR4 L41A (human, UniProt P61073-1 1-352, L41A); experiment: as above
T7 construct: human CXCR4, isoform 1 or b; source: 293T cells, transiently transfected (pcDNA3.1 CXCR4-IRES-eGFP), on cells
T7 sequence (P61073 whole entry L41A, canonical isoform): as the sequence (P61073 whole entry V112A, canonical isoform) above, with L41A, A112V counted along it

CXCR4 D97S = target: T8, CXCR4 D97S (human, UniProt P61073-1 1-352, D97S); experiment: as above
T8 construct: human CXCR4, isoform 1 or b; source: 293T cells, transiently transfected (pcDNA3.1 CXCR4-IRES-eGFP), on cells
T8 sequence (P61073 whole entry D97S, canonical isoform): as the sequence (P61073 whole entry V112A, canonical isoform) above, with D97S, A112V counted along it

CXCR4 E277A = target: T9, CXCR4 E277A (human, UniProt P61073-1 1-352, E277A); experiment: as above
T9 construct: human CXCR4, isoform 1 or b; source: 293T cells, transiently transfected (pcDNA3.1 CXCR4-IRES-eGFP), on cells
T9 sequence (P61073 whole entry E277A, canonical isoform): as the sequence (P61073 whole entry V112A, canonical isoform) above, with A112V, E277A counted along it

CXCR4 D262A = target: T10, CXCR4 D262A (human, UniProt P61073-1 1-352, D262A); experiment: as above
T10 construct: human CXCR4, isoform 1 or b; source: 293T cells, transiently transfected (pcDNA3.1 CXCR4-IRES-eGFP), on cells
T10 sequence (P61073 whole entry D262A, canonical isoform): as the sequence (P61073 whole entry V112A, canonical isoform) above, with A112V, D262A counted along it

CXCR4 V112A + L41A = target: T11, CXCR4 V112A + L41A (human, UniProt P61073-1 1-352, L41A | V112A); experiment: as above
T11 construct: human CXCR4, isoform 1 or b; also called L41A plus V112A; source: 293T cells, transiently transfected (pcDNA3.1 CXCR4-IRES-eGFP), on cells
T11 sequence (P61073 whole entry L41A/V112A, canonical isoform): as the sequence (P61073 whole entry V112A, canonical isoform) above, with L41A counted along it

[3] = target: T12, C-X-C motif chemokine receptor 4 (CXCR4) on SupT1 cells (human (endogenous in SupT1), UniProt P61073 1-352); experiment: flow cytometry on cells; 12G5 antibody competition on SupT1 cells; peptides in PBS with APC-conjugated 12G5 at a concentration close to its EC50, 4 °C, 2 h; MFI normalized to PBS control; IC50 by nonlinear regression
T12 construct: CXCR4 as expressed on SupT1 cells; source: endogenous, on SupT1 cells
T12 sequence (P61073 whole entry): as the sequence (P61073 whole entry V112A, canonical isoform) above, with A112V counted along it

B1: EPI-X4 (Alb408-423) (peptide)
peptide: LVRYTKKVPQVSTPTL
notes: source: synthetic peptide (Fmoc solid-phase synthesis, HPLC-purified)
IC50 (CXCR4 V112A): 11 µM
IC50 [1]: 6.99 µM
IC50 (CXCR4 D97N): > 1000 µM
IC50 (CXCR4 D97Q): > 1000 µM
IC50 [2]: 48.4 µM
IC50 (CXCR4 D97E + V112A): 18 µM
IC50 (CXCR4 L41A): 132 µM
IC50 (CXCR4 D97S): 785 µM
IC50 (CXCR4 E277A): 8.91 µM
IC50 (CXCR4 D262A): 5.21 µM
IC50 (CXCR4 V112A + L41A): 78 µM
IC50 [3]: 2.39 µM
